Test results published in article PMC4758025, “Critical Assessment of Protein Cross-Linking and Molecular Docking: An Updated Model for the Interaction Between Photosystem II and Psb27” (Frontiers in Plant Science, 2016).

B1: recombinant Psb27 (natural protein, T. elongatus, UniProt Q8DG60 22-134, looked up)
chain: CANVPTGLTGNFREDTLALISSLREAIALPENDPNKKAAQAEARKKLNDFFALYRRDDSLRSLSSFMTMQTALNSLAGHYSSYPNRPLPEKLKARLEQEFKQVELALDREAKS
notes: by the printed primers the natural stretch begins ANVPT and ends REAKS; No lipid modification, as the N-terminal cysteine is missing; the His tag is inferred; source: E. coli Overexpress C43, purified (IMAC, ResourceS ion exchange)

Experiments:
Settings in all cases: both partners purified
recombinant Psb27 = biological target: B1; experiment: SPR; Biacore 3000, CM5 chip; Im7 fusion proteins captured on covalently bound DNase E7; Psb27 injected from 50 μM to 100 nM for 60 s in MBS-EP (20 mM MES, 150 mM NaCl, 3 mM EDTA, 0.05% Surfactant P20, pH 6.5), 30 μl/min, 298 K; steady-state responses fitted to a one-site binding isotherm
[1] = biological target: T1, Im7-tagged lumenal domain of CP47 (residues 271-446) (UniProt Q8DIQ1 271-446); experiment: as above
T1 construct: CP47 (PsbB) of photosystem II, lumenal domain, residues 271-446; also called CP47 domain; source: cell-free expression (RTS100 system), purified on the chip

[2] = biological target: T2, CP43 in the monomeric Psb27-PSII intermediate complex (T. elongatus (endogenous), UniProt Q8DIF8 1-461); experiment: cross-linking; isolated monomeric Psb27-PSII complex without PsbO, PsbU and PsbV (2.4 μM) with a 1:1 mixture of BS3-H12/D12 (5 mM), 30 min on ice, 20 mM MES/NaOH, 10 mM CaCl2, 0.03% dodecyl-β-D-maltoside, pH 6.5; trypsin, LC-ESI-MS/MS, StavroX; found in light and heavy form
T2 construct: CP43 (PsbC) of photosystem II of T. elongatus; source: endogenous, Psb27-PSII complex isolated from wild-type T. elongatus

T1 sequence (Q8DIQ1 271-446): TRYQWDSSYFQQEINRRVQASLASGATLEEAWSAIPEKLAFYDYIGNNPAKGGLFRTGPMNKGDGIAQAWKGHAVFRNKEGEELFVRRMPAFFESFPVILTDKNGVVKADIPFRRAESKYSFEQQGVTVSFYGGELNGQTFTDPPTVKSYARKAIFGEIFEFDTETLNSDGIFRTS

Kd (recombinant Psb27)	Binder	also measured
34 µM	Im7-tagged mature D1 C-terminus (mD1, residues 295-344) (domain or fragment, D1 (PsbA) of photosystem II, mature C-terminus, residues 295-344; source: cell-free expression (RTS100 system), purified on the chip) not shown	
21 µM	Im7-tagged lumenal domain of CP43 (residues 293-424) (domain or fragment, Im7 fusion carrier omitted. Printed 293-424 taken as PDB 3ARC numbering, which is UniProt +12: printed K381, K339 and D383 then correspond to entry K369, K327 and D371, and the range spans the …) not shown	
~100 µM	Im7-tagged C-terminal lumenal domain of D2 (residues 294-352) (domain or fragment, D2 (PsbD) of photosystem II, C-terminus, residues 294-352; source: cell-free expression (RTS100 system), purified on the chip) not shown	
	B1	Kd [1]: ~100 µM
	Psb27 in the monomeric Psb27-PSII intermediate complex (natural protein, T. elongatus (endogenous), UniProt Q8DG60 22-134, looked up, N-terminal lipid modification, Psb27 of T. elongatus (tll2462), as it stands in the isolated Psb27-PSII complex; source: endogenous, Psb27-PSII complex isolated from wild-type T. elongatus) CANVPTGLTGNFREDTLALISSLREAIALPENDPNKKAAQAEARKKLNDFFALYRRDDSLRSLSSFMTMQTALNSLAGHYSSYPNRPLPEKLKARLEQEFKQVELALDREAKS	binding result [2]: binds
